Assays:
Assay in all cases: Y2H; output trait library
OsPN23390 aa 576-738 = target: T1, OsPN23390 aa 576-738 (Oryza sativa, UniProt Q7XPJ0 598-760)
T1 construct: prey, AD fusion
T1 sequence: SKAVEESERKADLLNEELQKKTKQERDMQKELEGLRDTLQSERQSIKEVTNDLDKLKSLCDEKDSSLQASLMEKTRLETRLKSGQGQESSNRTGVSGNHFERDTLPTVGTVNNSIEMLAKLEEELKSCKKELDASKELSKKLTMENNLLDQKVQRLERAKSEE
Summary of the method: (§1)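 Protein-protein interactions were detected with an automated, high-throughput yeast two-hybrid assay provided by Myriad Genetics Inc. (Salt Lake City, Utah). A bait clone encoding a defined amino-acid fragment of a rice protein was screened against a rice prey library, either the input trait or the output trait library. Prey clones were retrieved, and their encoding sequences were compared by BLAST against databases to identify the interacting proteins.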

OsPN29956 aa 2-373 = target: T2, OsPN29956 aa 2-373 (Oryza sativa, UniProt Q0JJ05 519-890)
T2 construct: prey, AD fusion
T2 sequence: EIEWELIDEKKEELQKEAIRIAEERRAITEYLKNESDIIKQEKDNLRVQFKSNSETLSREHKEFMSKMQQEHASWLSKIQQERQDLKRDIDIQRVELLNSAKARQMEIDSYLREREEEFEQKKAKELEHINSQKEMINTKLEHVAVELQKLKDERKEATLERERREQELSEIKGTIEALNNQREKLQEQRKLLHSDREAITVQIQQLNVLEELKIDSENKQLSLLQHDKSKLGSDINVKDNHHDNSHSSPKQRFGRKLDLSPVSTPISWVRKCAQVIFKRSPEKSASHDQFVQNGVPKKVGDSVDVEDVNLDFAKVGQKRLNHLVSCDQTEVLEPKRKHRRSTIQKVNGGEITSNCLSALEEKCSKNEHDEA
Summary of the method: as §1

OsPN29956 aa 96-235 = target: T3, OsPN29956 aa 96-235 (Oryza sativa, UniProt Q0JJ05 613-752)
T3 construct: prey, AD fusion; also called Novel Protein PN29956, Fragment, nuclear matrix constituent
T3 sequence: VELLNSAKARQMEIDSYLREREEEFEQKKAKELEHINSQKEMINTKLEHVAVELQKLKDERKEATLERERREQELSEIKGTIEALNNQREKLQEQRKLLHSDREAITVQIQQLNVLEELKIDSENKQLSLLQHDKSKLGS
Summary of the method: as §1

PN29970 aa 1-158 = target: T4, PN29970 aa 1-158 (Oryza sativa, UniProt A2WY50 120-277)
T4 construct: prey, AD fusion; also called Putative CorA-like Mg2+ Transporter Protein
T4 sequence: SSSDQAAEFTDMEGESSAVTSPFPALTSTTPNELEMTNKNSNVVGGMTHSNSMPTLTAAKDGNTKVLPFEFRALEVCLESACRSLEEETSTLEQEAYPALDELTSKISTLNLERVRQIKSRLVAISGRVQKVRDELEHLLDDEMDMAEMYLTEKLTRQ
Summary of the method: as §1

OsPN29969 aa 16-123 = target: T5, OsPN29969 aa 16-123 (Oryza sativa, UniProt A2XK00 17-123)
T5 construct: prey, AD fusion; also called Novel Protein PN29969, Similar to A. thaliana Unknown Protein BAB01990
T5 sequence: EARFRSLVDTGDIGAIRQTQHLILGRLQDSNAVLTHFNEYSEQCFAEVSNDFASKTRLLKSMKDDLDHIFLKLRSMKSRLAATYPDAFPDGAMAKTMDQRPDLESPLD
Summary of the method: as §1

OsPN23390 aa 595-845 = target: T6, OsPN23390 aa 595-845 (Oryza sativa, UniProt Q7XPJ0 617-867)
T6 construct: prey, AD fusion
T6 sequence: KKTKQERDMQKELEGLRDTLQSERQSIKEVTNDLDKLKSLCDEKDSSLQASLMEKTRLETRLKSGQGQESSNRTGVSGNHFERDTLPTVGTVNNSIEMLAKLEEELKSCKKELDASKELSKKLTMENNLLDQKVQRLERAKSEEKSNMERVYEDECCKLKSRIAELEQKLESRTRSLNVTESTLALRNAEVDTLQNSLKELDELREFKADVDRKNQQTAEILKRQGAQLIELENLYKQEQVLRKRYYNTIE
Summary of the method: as §1

OsPN25381 aa 30-218 = target: T7, OsPN25381 aa 30-218 (Oryza sativa, UniProt A3BV82 165-353)
T7 construct: prey, AD fusion; also called Protein 13357265 Putative CorA-like Mg2+ Transporter Protein
T7 sequence: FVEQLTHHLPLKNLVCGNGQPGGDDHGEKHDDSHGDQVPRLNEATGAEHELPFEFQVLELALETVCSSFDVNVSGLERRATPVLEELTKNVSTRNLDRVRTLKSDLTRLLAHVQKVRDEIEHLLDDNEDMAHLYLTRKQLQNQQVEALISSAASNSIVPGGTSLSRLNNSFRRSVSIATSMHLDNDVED
Summary of the method: as §1

OsPN29965 aa 12-124 = target: T8, OsPN29965 aa 12-124 (Oryza sativa, UniProt Q6YZ52 874-986)
T8 construct: prey, AD fusion; also called Novel Protein PN29965, Fragment, Similar to A. thaliana Kinesin (Centromere Protein)-Like Heavy Chain-Like Protein
T8 sequence: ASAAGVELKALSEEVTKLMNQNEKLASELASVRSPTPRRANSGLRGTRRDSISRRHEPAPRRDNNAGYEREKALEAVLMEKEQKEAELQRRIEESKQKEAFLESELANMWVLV
Summary of the method: as §1

OsMADS1 aa 82-241 = target: T9, OsMADS1 aa 82-241 (Oryza sativa, UniProt A2XDY1 82-241)
T9 construct: prey, AD fusion; also called PN19788; O. sativa MADS box protein MADS1
T9 sequence: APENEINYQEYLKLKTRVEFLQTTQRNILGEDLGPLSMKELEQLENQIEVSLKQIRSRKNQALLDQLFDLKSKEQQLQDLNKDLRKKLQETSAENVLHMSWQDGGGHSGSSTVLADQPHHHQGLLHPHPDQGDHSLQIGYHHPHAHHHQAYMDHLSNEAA
Summary of the method: as §1

OsFDRMADS6 aa 93-244 = target: T10, OsFDRMADS6 aa 93-244 (Oryza sativa, UniProt P0C5B1 93-244)
T10 construct: prey, AD fusion; also called PN19766
T10 sequence: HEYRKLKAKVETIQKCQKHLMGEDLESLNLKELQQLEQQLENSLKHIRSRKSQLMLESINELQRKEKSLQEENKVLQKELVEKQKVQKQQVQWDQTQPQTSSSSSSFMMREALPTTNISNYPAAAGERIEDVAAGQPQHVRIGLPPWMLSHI
Summary of the method: as §1

OsRAP1B aa 1-158 = target: T11, OsRAP1B aa 1-158 (Oryza sativa, UniProt Q10CQ1 1-158)
T11 construct: prey, AD fusion; also called PN20232; O. sativa AP1-like MADS box protein RAP1B
T11 sequence: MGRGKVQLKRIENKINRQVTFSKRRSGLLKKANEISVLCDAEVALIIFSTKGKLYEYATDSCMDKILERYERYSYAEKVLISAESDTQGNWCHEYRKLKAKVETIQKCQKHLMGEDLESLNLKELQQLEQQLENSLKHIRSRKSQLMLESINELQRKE
Summary of the method: as §1

OsMADS1 aa 71-257 = target: T12, OsMADS1 aa 71-257 (Oryza sativa, UniProt A2XDY1 71-257)
T12 construct: prey, AD fusion; also called PN19788
T12 sequence: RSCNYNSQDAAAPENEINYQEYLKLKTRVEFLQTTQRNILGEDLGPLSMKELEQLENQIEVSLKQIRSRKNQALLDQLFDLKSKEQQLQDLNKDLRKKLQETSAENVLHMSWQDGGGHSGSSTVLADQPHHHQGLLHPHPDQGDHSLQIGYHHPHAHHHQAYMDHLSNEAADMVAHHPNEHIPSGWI
Summary of the method: as §1

OsMADS6 aa 70-250 = target: T13, OsMADS6 aa 70-250 (Oryza sativa, UniProt Q6EU39 70-250)
T13 construct: prey, AD fusion; also called PN20233; O. sativa MADS box protein MADS6
T13 sequence: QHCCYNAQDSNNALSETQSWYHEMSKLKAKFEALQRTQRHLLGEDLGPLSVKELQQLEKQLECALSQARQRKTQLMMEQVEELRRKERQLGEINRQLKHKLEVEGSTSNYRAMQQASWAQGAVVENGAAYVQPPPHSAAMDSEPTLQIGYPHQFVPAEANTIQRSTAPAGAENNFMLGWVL
Summary of the method: as §1

Measured: binding result

B1: OsCYCOS2 aa 50-233 (other)
chain: KRGLLDKPAAKNQSGHRPMTRKFAATLANQPSIAPLAPIGSERQKRTADSAFHGPADMECTKITSDDLPLPMMSEMDEVMGSELKEIEMEDIEEAAPDIDSCDANNSLAVVEYVDEIYSFYRRSEGLSCVSPNYMLSQNDINEKMRGILIDWLIEVHYKLELLDETLFLTVNIIDRFLARENVV
notes: bait, Gal4 DBD fusion; also called PN20257; O. sativa Cyclin OsCYCOS2
not listed: OsMADS1 aa 82-241 | OsFDRMADS6 aa 93-244 | OsRAP1B aa 1-158 | OsMADS1 aa 71-257 | OsMADS6 aa 70-250
binds: all other assays above

B2: OsMADS45 aa 50-198 (other)
chain: NRGKLYEFCSTQSMTKTLEKYQKCSYAGPETAVQNRESEQLKASRNEYLKLKARVENLQRTQRNLLGEDLDSLGIKELESLEKQLDSSLKHVRTTRTKHLVDQLTELQRKEQMVSEANRCLRRKLEESNHVRGQQVWEQGCNLIGYERQ
notes: bait, Gal4 DBD fusion; also called PN20231; O. sativa MADS box protein MADS45
binds: OsMADS1 aa 82-241 | OsFDRMADS6 aa 93-244 | OsRAP1B aa 1-158 | OsMADS1 aa 71-257 | OsMADS6 aa 70-250

From patent publication US20060253917A1 (published 2006)
